Read-outs that look alike come from different tables or passages of the source.
B1: MXRA8-2-Fc (extracellular domain of human MXRA8-2 fused to mouse IgG2b Fc) (Fc fusion)
chain: ISVLLHSGSSVPAAAGSSVVSESAVSWEAGARAVLRCQSPRMVWTQDRLHDRQRVLHWDLRGPGGGPARRLLDLYSAGEQRVYEARDRGRLELSASAFDDGNFSLLIRAVEETDAGLYTCNLHHHYCHLYESLAVRLEVTDGPPATPAYWDGEKEVLAVARGAPALLTCVNRGHVWTDRHVEEAQQVVHWDRQPPGVPHDRADRLLDLYASGERRAYGPLFLRDRVAVGADAFERGDFSLRIEPLEVADEGTYSCHLHHHYCGLHERRVFHLTVAEPHAEPPPRGSPGNGSSHSGAPGPDPTLARGHNVINVIVPESRAHASVRSPSGPISTINPCPPCKECHKCPAPNLEGGPSVFIFPPNIKDVLMISLTPKVTCVVVDVSEDDPDVQISWFVNNVEVHTAQTQTHREDYNSTIRVVSTLPIQHQDWMSGKEFKCKVNNKDLPSPIERTISKIKGLVRAPQVYILPPPAEQLSRKDVSLTCLVVGFNPGDISVEWTSNGHTEENYKDTAPVLDSDGSYFIYSKLNMKTSKWEKTDSFSCNVRHEGLKNYYLKKTISRSPGK
B2: Mxra8-Fc (extracellular domain of mouse Mxra8 fused to mouse IgG2b Fc) (Fc fusion)
chain: SGPSGTAAASSSLVSESVVSLAAGTQAVLRCQSPRMVWTQDRLHDRQRVVHWDLSGGPGSQRRRLVDMYSAGEQRVYEPRDRDRLLLSPSAFHDGNFSLLIRAVDRGDEGVYTCNLHHHYCHLDESLAVRLEVTEDPLLSRAYWDGEKEVLVVAHGAPALMTCINRAHVWTDRHLEEAQQVVHWDRQLPGVSHDRADRLLDLYASGERRAYGPPFLRDRVSVNTNAFARGDFSLRIDELERADEGIYSCHLHHHYCGLHERRVFHLQVTEPAFEPPARASPGNGSGHSSAPSPDPTLTRGHSIINVIVPEDHTHPSGPISTINPCPPCKECHKCPAPNLEGGPSVFIFPPNIKDVLMISLTPKVTCVVVDVSEDDPDVQISWFVNNVEVHTAQTQTHREDYNSTIRVVSTLPIQHQDWMSGKEFKCKVNNKDLPSPIERTISKIKGLVRAPQVYILPPPAEQLSRKDVSLTCLVVGFNPGDISVEWTSNGHTEENYKDTAPVLDSDGSYFIYSKLNMKTSKWEKTDSFSCNVRHEGLKNYYLKKTISRSPGK
B3: Mxra8-Fc (mouse Mxra8 extracellular domain fused to mouse IgG2b Fc) (Fc fusion)
chain: B2 chain

Assays:
[1] = target: CHIKV virus-like particles (strain 37997) (chikungunya virus)
[2] = target: CHIKV strain 181/25 (virions; also E2-E1 shown on infected cells) (chikungunya virus); test: ELISA, CHIKV-181/25 captured with a human anti-CHIKV mAb, anti-mouse IgG-HRP
[3] = target: CHIKV virus-like particles (strain 37997) (chikungunya virus); remark: listed apart in the source
[4] = target: CHIKV E2-6K-E1 envelope proteins (strain S27) with E2 Q195A (Chikungunya virus strain S27) (UniProt Q8JUX5); test: flow cytometry, transfected 293T cells

| Binder | EC50 (read off the curve) [1] | EC50 (read off the curve) [2] | EC50 (read off the curve) [3] | Binding Reactivity (% WT) [4] |
| --- | --- | --- | --- | --- |
| B1 | 0.05 µg/mL | – | – | – |
| B2 | 0.01 µg/mL | 0.1 µg/mL | 0.01 µg/mL | – |
| B3 | – | – | – | 82.4 % WT |
